What follows are binders tested against T1, CTNI质控品重组抗原 (人心肌肌钙蛋白I, cTnI) (human, UniProt P19429 1-210, limits assumed) (assay: AMC sensor (biolayer interferometry), antibody immobilised at 10 ug/ml, cTnI QC recombinant protein in serial dilution in PBST).
T1 construct: also called CTNI质控品重组蛋白
T1 sequence (P19429 whole entry): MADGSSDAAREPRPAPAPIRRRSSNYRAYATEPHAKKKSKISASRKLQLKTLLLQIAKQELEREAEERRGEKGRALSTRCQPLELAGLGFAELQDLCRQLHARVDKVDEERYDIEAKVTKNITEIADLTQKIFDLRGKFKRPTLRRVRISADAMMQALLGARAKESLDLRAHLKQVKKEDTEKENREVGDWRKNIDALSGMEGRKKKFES

| Kd [nM] | koff [s⁻¹] | kon [M⁻¹ s⁻¹] | Binder |
| --- | --- | --- | --- |
| 1.43 | 5.51e-05 | 38500 | WT 1-1 (antibody, V domains shown) VH: QVQLQQSGTELAKPGASVKFSCKASDYTFSTYWMYWIKQRPGQGLEWIGYINPSTGHTEYNQKFKDKATLTADKSSSTAYMQLNSLTSEDSAVYYCARRYYGPFAMDYWGQGTSVTVSS VL: EIFLTQSPAIMSASPGEKVTMTCSASSSVSYAHWYQQKSGTSPKRWIYDSSKIASGIPVRFSGSGSGTSYSLTISSMEAEDAATYYCQNWSTNPYTFGGGTKLEIKR |
| 0.728 | 0.000132 | 182000 | WT 1-7 (antibody, V domains shown) VH: QVQLQQSGTELAKPGASVKFSCKASDYTFTTYWMYWIKQRPGQGLEWIGYLNPSTGHTEYNQKFKDKATLTADKSSSTAYMQLNSLTSEDSAVYYCARRYYGPFAMDYWGQGTSVTVSS VL: EIFLTQSPAIMSASPGEKVTMTCSASTSVSYAHWYQQKSGTSPKRWIYDSSKLASGIPVRFSGSGSGTSYSLTISSMEAEDAATYYCQNWSTNPYTFGGGTKLEIKR |
| 1.04 | 3.9e-05 | 37500 | WT 1-4 (antibody, V domains shown) VH: QVQLQQSGTELAKPGASVKFSCKASDYTFSTYWMYWIKQRPGQGLEWIGYINPSSGHTEYNQRFKDKATLTADKSSSTAYMQLNSLTSEDSAVYYCARKYYGPFAMDYWGQGTSVTVSS VL: EIFLTQSPAIMSASPGEKVTMTCSASTTVSYAHWYQQKSGTSPKRWLYDSSKIASGIPVRFSGSGSGTSYSLTISSMEAEDAATYYCQNWSTNPYTFGGGTKLEIKR |

Reference: patent CN111018977A (DONGGUAN PENGZHI BIOTECHNOLOGY CO LTD, dated 2020)
